Experimental findings from article doi:10.1101/2025.03.07.642025, “The TONSL-MMS22L complex and FANCM form an interdependent complex on chromatin to counter replication stress” (bioRxiv, 2025) are described below.

Experiment [1] addresses T1, FANCM (human (endogenous in HeLa), UniProt Q8IYD8 1-2048).
T1 construct: FANCM, human, endogenous in HeLa cells; also called endogenous FANCM; source: endogenous, HeLa
In words: proximity ligation; Duolink PLA in HeLa cells treated with 1.5 uM TMP and UVA (3 J/cm2), 60 min in fresh medium before fixation. The following applies: partners not purified.

The target in experiment [2] is T1, FANCM. In words: proximity ligation; PLA in TMP/UVA-treated cells, early and late S phase sorted by flow cytometry; PCNA as marker of the S phase stage. To be noted: partners not purified. Background: Flow cytometry measures light scatter and fluorescence of single cells or particles in a stream.

T1 sequence (Q8IYD8 whole entry): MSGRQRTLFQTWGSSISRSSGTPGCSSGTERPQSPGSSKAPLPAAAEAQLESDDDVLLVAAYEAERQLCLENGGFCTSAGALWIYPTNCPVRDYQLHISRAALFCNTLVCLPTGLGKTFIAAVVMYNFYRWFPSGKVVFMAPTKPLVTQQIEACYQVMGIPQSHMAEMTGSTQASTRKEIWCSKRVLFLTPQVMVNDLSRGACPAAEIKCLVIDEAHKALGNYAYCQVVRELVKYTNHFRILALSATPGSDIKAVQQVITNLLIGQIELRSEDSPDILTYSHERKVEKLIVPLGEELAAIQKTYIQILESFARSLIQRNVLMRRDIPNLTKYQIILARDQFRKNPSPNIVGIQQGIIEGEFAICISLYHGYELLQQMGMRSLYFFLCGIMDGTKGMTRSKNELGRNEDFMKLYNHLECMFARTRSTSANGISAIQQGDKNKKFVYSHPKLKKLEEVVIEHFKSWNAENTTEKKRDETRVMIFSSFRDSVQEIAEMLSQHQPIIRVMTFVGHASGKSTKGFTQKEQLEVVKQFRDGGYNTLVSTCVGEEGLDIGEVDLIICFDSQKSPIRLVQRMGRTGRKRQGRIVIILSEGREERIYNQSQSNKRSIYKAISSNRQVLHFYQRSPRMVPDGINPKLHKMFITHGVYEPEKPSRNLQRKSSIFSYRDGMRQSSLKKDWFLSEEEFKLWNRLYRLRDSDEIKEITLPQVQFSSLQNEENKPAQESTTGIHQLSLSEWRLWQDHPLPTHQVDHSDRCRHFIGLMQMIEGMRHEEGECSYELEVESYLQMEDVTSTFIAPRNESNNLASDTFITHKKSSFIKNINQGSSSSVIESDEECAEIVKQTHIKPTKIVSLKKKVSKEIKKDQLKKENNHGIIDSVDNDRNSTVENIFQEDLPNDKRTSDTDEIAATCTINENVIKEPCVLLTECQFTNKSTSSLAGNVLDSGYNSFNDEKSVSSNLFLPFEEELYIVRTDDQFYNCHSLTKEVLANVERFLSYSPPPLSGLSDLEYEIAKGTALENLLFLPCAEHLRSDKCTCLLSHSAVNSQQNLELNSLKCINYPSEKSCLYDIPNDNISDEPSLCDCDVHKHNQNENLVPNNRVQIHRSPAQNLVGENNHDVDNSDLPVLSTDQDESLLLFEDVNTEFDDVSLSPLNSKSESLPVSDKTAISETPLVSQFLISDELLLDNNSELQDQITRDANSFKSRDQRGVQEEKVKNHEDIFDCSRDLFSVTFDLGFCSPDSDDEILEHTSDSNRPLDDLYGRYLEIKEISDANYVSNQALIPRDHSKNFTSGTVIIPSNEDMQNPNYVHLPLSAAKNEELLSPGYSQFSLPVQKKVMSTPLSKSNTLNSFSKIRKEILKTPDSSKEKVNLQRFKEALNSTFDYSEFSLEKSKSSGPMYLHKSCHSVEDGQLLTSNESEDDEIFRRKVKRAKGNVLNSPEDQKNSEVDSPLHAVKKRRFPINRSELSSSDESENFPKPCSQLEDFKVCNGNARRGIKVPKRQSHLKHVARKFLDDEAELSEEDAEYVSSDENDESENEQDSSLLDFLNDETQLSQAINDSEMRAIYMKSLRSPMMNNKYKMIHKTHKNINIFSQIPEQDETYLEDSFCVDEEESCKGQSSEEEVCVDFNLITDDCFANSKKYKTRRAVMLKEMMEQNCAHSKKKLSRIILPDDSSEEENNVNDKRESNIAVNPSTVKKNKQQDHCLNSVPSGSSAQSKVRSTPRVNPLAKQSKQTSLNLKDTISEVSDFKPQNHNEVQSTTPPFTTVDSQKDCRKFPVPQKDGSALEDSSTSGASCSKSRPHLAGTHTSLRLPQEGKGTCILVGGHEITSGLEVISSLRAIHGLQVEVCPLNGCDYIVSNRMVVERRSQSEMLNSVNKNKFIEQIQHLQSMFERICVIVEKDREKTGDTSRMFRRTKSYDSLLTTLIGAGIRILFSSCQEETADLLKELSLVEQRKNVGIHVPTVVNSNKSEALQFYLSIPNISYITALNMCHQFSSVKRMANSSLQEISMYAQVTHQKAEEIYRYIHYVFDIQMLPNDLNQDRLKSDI

B1: TONSL (natural protein, human (endogenous in HeLa), UniProt Q96HA7 1-1378, looked up)
chain: MSLERELRQLSKAKAKAQRAGQRREEAALCHQLGELLAGHGRYAEALEQHWQELQLRERADDPLGCAVAHRKIGERLAEMEDYPAALQHQHQYLELAHSLRNHTELQRAWATIGRTHLDIYDHCQSRDALLQAQAAFEKSLAIVDEELEGTLAQGELNEMRTRLYLNLGLTFESLQQTALCNDYFRKSIFLAEQNHLYEDLFRARYNLGTIHWRAGQHSQAMRCLEGARECAHTMRKRFMESECCVVIAQVLQDLGDFLAAKRALKKAYRLGSQKPVQRAAICQNLQHVLAVVRLQQQLEEAEGRDPQGAMVICEQLGDLFSKAGDFPRAAEAYQKQLRFAELLDRPGAERAIIHVSLATTLGDMKDHHGAVRHYEEELRLRSGNVLEEAKTWLNIALSREEAGDAYELLAPCFQKALSCAQQAQRPQLQRQVLQHLHTVQLRLQPQEAPETETRLRELSVAEDEDEEEEAEEAAATAESEALEAGEVELSEGEDDTDGLTPQLEEDEELQGHLGRRKGSKWNRRNDMGETLLHRACIEGQLRRVQDLVRQGHPLNPRDYCGWTPLHEACNYGHLEIVRFLLDHGAAVDDPGGQGCEGITPLHDALNCGHFEVAELLLERGASVTLRTRKGLSPLETLQQWVKLYRRDLDLETRQKARAMEMLLQAAASGQDPHSSQAFHTPSSLLFDPETSPPLSPCPEPPSNSTRLPEASQAHVRVSPGQAAPAMARPRRSRHGPASSSSSSEGEDSAGPARPSQKRPRCSATAQRVAAWTPGPASNREAATASTSRAAYQAAIRGVGSAQSRLGPGPPRGHSKALAPQAALIPEEECLAGDWLELDMPLTRSRRPRPRGTGDNRRPSSTSGSDSEESRPRARAKQVRLTCMQSCSAPVNAGPSSLASEPPGSPSTPRVSEPSGDSSAAGQPLGPAPPPPIRVRVQVQDHLFLIPVPHSSDTHSVAWLAEQAAQRYYQTCGLLPRLTLRKEGALLAPQDLIPDVLQSNDEVLAEVTSWDLPPLTDRYRRACQSLGQGEHQQVLQAVELQGLGLSFSACSLALDQAQLTPLLRALKLHTALRELRLAGNRLGDKCVAELVAALGTMPSLALLDLSSNHLGPEGLRQLAMGLPGQATLQSLEELDLSMNPLGDGCGQSLASLLHACPLLSTLRLQACGFGPSFFLSHQTALGSAFQDAEHLKTLSLSYNALGAPALARTLQSLPAGTLLHLELSSVAAGKGDSDLMEPVFRYLAKEGCALAHLTLSANHLGDKAVRDLCRCLSLCPSLISLDLSANPEISCASLEELLSTLQKRPQGLSFLGLSGCAVQGPLGLGLWDKIAAQLRELQLCSRRLCAEDRDALRQLQPSRPGPGECTLDHGSKLFFRRL
notes: TONSL, human, endogenous in HeLa cells; source: endogenous, HeLa
Take B1: the “fold increase of PLA signals, TMP/UVA-treated over UVA-treated cells” value with FANCM [1] is around 20 fold. Further, in the experiment with FANCM [2], the “fold increase of PLA signals, late S over early S phase” value was around 20 fold.

B2: MMS22L (natural protein, human (endogenous in HeLa), UniProt Q6ZRQ5 1-1243, looked up)
chain: MENCSAASTFLTDSLELELGTEWCKPPYFSCAVDNRGGGKHFSGESYLCSGALKRLILNLDPLPTNFEEDTLEIFGIQWVTETALVNSSRELFHLFRQQLYNLETLLQSSCDFGKVSTLHCKADNIRQQCVLFLHYVKVFIFRYLKVQNAESHVPVHPYEALEAQLPSVLIDELHGLLLYIGHLSELPSVNIGAFVNQNQIKLFPPSWHLLHLHLDIHWLVLEILYMLGEKLKQVVYGHQFMNLASDNLTNISLFEEHCETLLCDLISLSLNRYDKVRSSESLMSDQCPCLCIKELWVLLIHLLDHRSKWFVSESFWNWLNKLLKTLLEKSSDRRRSSMPVIQSRDPLGFSWWIITHVASFYKFDRHGVPDEMRKVESNWNFVEELLKKSISVQGVILEEQLRMYLHCCLTLCDFWEPNIAIVTILWEYYSKNLNSSFSISWLPFKGLANTMKSPLSMLEMVKTCCCDKQDQELYKSSSSYTIFLCILAKVVKKAMKSNGPHPWKQVKGRIYSKFHQKRMEELTEVGLQNFFSLFLLLAAVAEVEDVASHVLDLLNFLKPAFVTSQRALIWKGHMAFLLMYAQKNLDIGVLAEKFSCAFREKAKEFLVSKNEEMVQRQTIWTLLSIYIDGVQEVFETSYCLYPSHEKLLNDGFSMLLRACRESELRTVLSFLQAVLARIRSMHQQLCQELQRDNVDLFVQSSLSAKERHLAAVASALWRHFFSFLKSQRMSQVVPFSQLADAAADFTLLAMDMPSTAPSDFQPQPVISIIQLFGWDDIICPQVVARYLSHVLQNSTLCEALSHSGYVSFQALTVRSWIRCVLQMYIKNLSGPDDLLIDKNLEEAVEKEYMKQLVKLTRLLFNLSEVKSIFSKAQVEYLSISEDPKKALVRFFEAVGVTYGNVQTLSDKSAMVTKSLEYLGEVLKYIKPYLGKKVFSAGLQLTYGMMGILVKSWAQIFATSKAQKLLFRIIDCLLLPHAVLQQEKELPAPMLSAIQKSLPLYLQGMCIVCCQSQNPNAYLNQLLGNVIEQYIGRFLPASPYVSDLGQHPVLLALRNTATIPPISSLKKCIVQVIRKSYLEYKGSSPPPRLASILAFILQLFKETNTDIYEVELLLPGILKCLVLVSEPQVKRLATENLQYMVKACQVGSEEEPSSQLTSVFRQFIQDYGMRYYYQVYSILETVATLDQQVVIHLISTLTQSLKDSEQKWGLGRNIAQREAYSKLLSHLGQMGQDEMQRLENDNT
notes: MMS22L, human, endogenous in HeLa cells; source: endogenous, HeLa
B2: the “fold increase of PLA signals, TMP/UVA-treated over UVA-treated cells” value with FANCM [1] is around 20 fold. Moreover, the “fold increase of PLA signals, late S over early S phase” value with FANCM [2] is around 20 fold.
